Reference: the nanobody polyreactivity screen of Harvey et al. (2022)

Assay: yeast display, Sf9 membrane polyspecificity reagent, FACS + sequencing; frameworks hold sequencing errors
Outline: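 A nanobody's polyreactivity label depends on the gate it was sorted from. Yeast display cells were stained with 10% biotinylated, detergent-solubilized Sf9 membrane reagent for 1 hour at 4 °C, enriched on streptavidin microbeads and sorted by FACS. The low and high (top ~1%) gates were set on anti-HA fluorescence for expression and streptavidin fluorescence for reagent binding.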

Sequence | polyreactivity (PSR sort gate)
QVQLVESGGGLVQAGGSLRLSCAASGRTFLYYAMGWYRQAPGKERELVAAISSGGRTNYADSVNGRFTISRDNAKNTVYLQMNSRKPEDTAVYYCAVRRGAFSTYPGYNYWGQGTQVTVSS | high polyreactivity
QVQLVESGGGLVQAGGSLRLSCAASGSIFVVYSMGWYRQAPGKERELVAAISWGIGSTYYADSVKGRFTISRDNAKNTVYLQMNSLKPEDTALYYCAADTDIVLYDYWGQGTQVTVSS | low polyreactivity
QVQLVESGGGLVQAGGSLRLSCAASGRIFGGYAMGGDRQAPGKERELVAVISGRGGSTYYADSVKGRFTISRDNAKNTVYLQMNSLKPEDTAVYYCTVYRRIQRYGPQSYDYWGQGTQVTVSS | high polyreactivity
QVQLVESGGGLVQAGGSLRLSCAASGIIFRGNAMGWYRQAPRKERELVAAISSAGSTNYADSVKGRFTISRDNAKNTVYLQMNSLKPEDTAVYYCAKGSSKYHVTLRGRGYYWGQGTQVTVSS | low polyreactivity
QVQLVESGGGLVQAGGSLRLSCAASGRIFGVNAMGWYRQAPGKERELVAHIRSSGASTYYADSVKGRFTISRDNAKNTVYLQMNSLKPEDTAVYYCARDYFVDGPGYDYWGQGTQVTVSS | low polyreactivity
QLQLVESGGGLVQAGGSLRLSCAASGSIIGYYAMGWYRQAHGKERELVAAITASGGSTYYADSVKGRFTISRDNAKNTVYLQMNILKPEDTAVYYCAAGTHTDYGRYYYWGQGTQVTVSS | low polyreactivity
QVQHEESGGGLVQAGASLRLSCAPSGRILLYNAMGCYRQAPGKERELVAAISSTGGRTYYADSVKGRFTISRDNAKNTFYLQMNSLKPEDTAVYYCAADYYWSLHQRMDYWGQGTQVTVSS | high polyreactivity
QDQLVESGGGLVQAGGSLRLSCAASGNTFNRYAKGWYRQAPGQERELVAAITSDGSTNYADSVKGRFTISRDNAKNTVYIQKNSMKPEDTAVYYCAAEHSGYPVAFYITGYGYDYCGQGTQVTVSS | low polyreactivity
QVQLVESGGGLVQAGGSLRLSCAASGITFPANAMGWYRQAPGKERELVAAISTSGGSTYYADSVKGRFTISRDNAKNTVYLQMNSLKPEDTAVYYCAATIYPYYSLYSHYYWGQCTQVTVSS | high polyreactivity
QVQLVESGGGLVQAGGSLRISCAASGRIFDLYAMGWYRQPPGKERELVASISSDGSTNYADSVKGRFTISRDNAKNTVYLQMNSLKPEDTAVYYCATRKGRRYGYNYWGQGTQVTVSS | high polyreactivity
QVQLVESGGGLVQAGGSLRLSCAASGSIISGYAMGWYRQAPGKERELVASISSSGGRTYYAYSVKGRYTISRDNAKNTVYLPRNSLKPEDTAVYYCNVKSYTYGYLPYDYWGQGTQVTVSS | high polyreactivity
QVQLVESGGGLVQAGGSLRLSCAASGSIFAYNTMGWYRQAPGKERELVAAITGRAGSTYYADSVKGRFTISRDNAKNTVYLQMNSLKPEDTAVYYCNAPTWVRGGYDYWGQGTQVTVSS | high polyreactivity
QVQLVESGGGLVQAGGSLRLSCAAPGLTFWSYAMGWYRPAPGKERELVADITYRGGSTYYADSVKGRFTISRDNAKNTVYLQMNSLKPEDTAVYYCAARKKYRFDYWGQGTQVTVSS | high polyreactivity
KVQLVESGGGLVQAGGSLRLSCAASGSTFYYYAMGWNRQAPGKERELVAVITLSGGSTYYADSVKGRFTISRDNAKNTFYLQMNSLKPEDTAVFYCAAEHWEVWNSYYYEYDYWGQGTLVTVSS | high polyreactivity
QVQLVESGGGLVQAGGSLRLSCAASGSTFSSYAMGWYRQAPGKERELVAAISYSGGSTYYADSVKGRFTISRDNAKNTVYLQMNSLKPEDTAVYYCAAVGTWQHRSYGYWGQGTQVTVSS | high polyreactivity
QVQLVESGGGLVQAGGSLRLSCAASGRTFWYNAMGWYRQAPGKEREFVAAITSSGGSTYYADSVKGRFTISRDNAKHTVFLQMNSLKPEDTAVYYCNKRPGPYKWPPRHDYWGQGTQVTVSS | low polyreactivity
QVQLVESGGGLVQAGGSLLLSCAASGFTFKCYAMGWYRQAPGKERELVAAISRSGSSTYYADSVKVRFTISRDTAKNTVYLQMNSLKPEDTAVYYCAAYYRTWGGYWGQGTQVTVSS | high polyreactivity
